Earlier results in patent US8840883B2, “Metallo-protein and tocotrienol (MP-T3) compositions with non-protein-type metal chelator and uses thereof” (Naidu LP, priority 2007, dated 2014).

Tested on: macrophages incubated with acetylated low-density lipoproteins (LDL)

B1: bovine milk LF: bi-lobed glycoprotein of the transferrin family of iron-binding metallo-proteins, from bovine milk (protein, UniProt P24627 20-708, looked up)
Lactotransferrin: APRKNVRWCTISQPEWFKCRRWQWRMKKLGAPSITCVRRAFALECIRAIAEKKADAVTLDGGMVFEAGRDPYKLRPVAAEIYGTKESPQTHYYAVAVVKKGSNFQLDQLQGRKSCHTGLGRSAGWIIPMGILRPYLSWTESLEPLQGAVAKFFSASCVPCIDRQAYPNLCQLCKGEGENQCACSSREPYFGYSGAFKCLQDGAGDVAFVKETTVFENLPEKADRDQYELLCLNNSRAPVDAFKECHLAQVPSHAVVARSVDGKEDLIWKLLSKAQEKFGKNKSRSFQLFGSPPGQRDLLFKDSALGFLRIPSKVDSALYLGSRYLTTLKNLRETAEEVKARYTRVVWCAVGPEEQKKCQQWSQQSGQNVTCATASTTDDCIVLVLKGEADALNLDGGYIYTAGKCGLVPVLAENRKSSKHSSLDCVLRPTEGYLAVAVVKKANEGLTWNSLKDKKSCHTAVDRTAGWNIPMGLIVNQTGSCAFDEFFSQSCAPGADPKSRLCALCAGDDQGLDKCVPNSKEKYYGYTGAFRCLAEDVGDVAFVKNDTVWENTNGESTADWAKNLNREDFRLLCLDGTRKPVTEAQSCHLAVAPNHAVVSRSDRAAHVKQVLLHQQALFGKNGKNCPDKFCLFKSETKNLLFNDNTECLAKLGGRPTYEEYLGTEYVTAIANLKKCSTSPLLEACAFLTR
- decrease of accumulation of CE in macrophages: more than 80%
